Publication PMC11480844

B1: H2-Kb / B6 (parent)
chain 1: GDSVTQTEGLVTVTEGLPVKLNCTYQTTYLTIAFFWYVQYLNEAPQVLLKSSTDNKRTEHQGFHATLHKSSSSFHLQKSSAQLSDSALYYCALSLGNAGAKLTFGGGTRLTVRP
chain 2: EAAVTQSPRNKVTVTGGNVTLSCRQTNSHNYMYWYRQDTGHGLRLIHYSYGAGNLQIGDVPDGYKATRTTQEDFFLLLELASPSQTSLYFCASSDGMISSSYEQYFGPGTRLTVL
chain 3: not shown
chain 4: IQKTPQIQVYSRHPPENGKPNILNCYVTQFHPPHIEIQMLKNGKKIPKVEMSDMSFSKDWSFYILAHTEFTPTETDTYACRVKHDSMAEPKTVYWDRDM
chain 5: SIINFEKL
B2: H2-Kb / F5 (parent)
chain 1: GDSVTQTEGLVTLTEGLPVMLNCTYQSTYSPFLFWYVQHLNEAPKLLLKSFTDNKRPEHQGFHATLHKSSSSFHLQKSSAQLSDSALYYCALSPSNMGYKLTFGTGTSLLVDP
chain 2: EAAVTQSPRNKVAVTGGKVTLSCNQTNNHNNMYWYRQDTGHGLRLIHYSYGAGSTEKGDIPDGYKASRPSQENFSLILELATPSQTSVYFCASGDASEQYFGPGTRLTVL
chain 3: not shown
chain 4: B1 chain 4
chain 5: SIINFEKL

Variants of: B1
Test: % of reporter cells activated (NFAT-GFP), raw
Design: unit not given here
Conditions: with B6
Further: test concentration or dose not given here.

Ratio to parent of substitutions, site by site:
chain 5 E6: G 0.664; Y 0.685; M 0.946; T 0.859; Q 0.872; N 1.07; F 0.792; S 0.852; P 1; R 0.711; I 0.55; L 0.866; D 0.792; A 1.21; V 0.51; H 0.919; C 0.879; W 0.758; K 0.872
chain 5 F5: K 1.28; S 0.98; A 1.15; P 0.973; E 1.74; G 1.17; D 1.25; M 1; C 1.47; Q 1.07; W 1.15; N 0.966; L 1.08; H 1.28; R 0.765; T 0.993; V 1.09; Y 1.28; I 1.09
chain 5 I2: K 1.08; D 1.07; G 0.966; N 1.2; Q 0.886; H 1.15; L 1.08; Y 1.07; V 0.987; C 1.18; T 1.23; S 0.987; M 0.98; W 0.926; P 1.16; E 0.879; R 0.765; F 1.01; A 1.13
chain 5 I3: Y 1.23; S 1.15; L 1.11; V 0.886; N 0.913; A 1.17; T 1.16; K 0.98; C 1.07; P 1.11; Q 1.06; W 1.19; E 1.03; D 1.01; R 0.678; G 1.01; F 1.43; M 1.13; H 1.01
chain 5 N4: S 1.03; E 0.913; A 1.17; D 1.29; Q 0.993; Y 0.913; V 0.893; W 0.832; C 1.25; M 2.76; G 0.752; I 1.05; T 1.1; P 1.13; F 1.87; R 1; L 2.7; K 0.926; H 0.973
chain 5 K7: T 0.94; W 0.638; V 0.872; C 1; Q 1.09; S 0.644; M 0.765; Y 0.738; I 0.899; E 1.11; A 0.832; H 0.926; G 0.913; P 0.758; L 0.785; N 0.664; R 0.477; F 0.812; D 0.819
chain 5 L8: M 0.718; E 0.329; G 1.09; H 0.859; I 0.758; A 0.53; P 0.671; C 0.725; Q 0.738; S 0.53; W 0.604; K 0.819; D 0.456; V 0.403; N 0.765; F 0.523; R 0.812; Y 0.805; T 0.55
chain 5 S1: N 0.872; M 0.973; W 1.01; A 1.1; L 1.13; I 0.919; E 1.12; F 1.18; P 0.953; V 0.826; G 1.01; Y 1; H 1.12; C 1.05; Q 0.926; R 0.611; D 1.13; T 1.07; K 0.993

Variants of: B2
Test: % of reporter cells activated (NFAT-GFP), raw
Conditions: with F5; scale: % of reporter cells activated

Ratio to parent of substitutions, site by site:
chain 5 L8: T 0.453; C 2.82; P 0.352; G 0.352; E 0.285; N 0.21; D 1.91; S 1.39; R 0.345; V 0.521; M 0.427; I 0.858; W 0.292; F 0.247; H 1.55; K 0.633; Y 0.742; Q 0.288; A 0.195
chain 5 I3: W 0.243; R 0.161; T 0.356; M 0.255; K 0.345; G 0.292; P 0.427; C 0.419; Y 0.3; N 0.251; L 0.547; Q 0.464; E 0.517; S 0.348; V 0.487; F 0.3; H 0.311; D 0.255
chain 5 N4: T 0.337; K 0.184; I 0.315; D 0.21; P 0.36; F 0.509; Q 0.15; W 0.438; L 0.401; G 0.24; M 0.431; C 0.232; V 0.322; Y 0.307; R 0.191; H 0.36; A 0.262; E 0.21; S 0.303
chain 5 S1: A 0.521; K 0.326; C 0.296; L 0.375; R 0.225; D 0.288; E 0.33; Q 0.554; Y 0.337; H 0.337; M 0.281; W 0.292; F 0.262; V 0.307; I 0.262; N 0.161; T 0.573; P 0.315; G 0.629
chain 5 K7: E 0.184; W 0.498; D 0.341; S 0.775; C 0.588; Q 1.38; F 2.64; A 0.903; H 0.61; T 1.72; L 3.69; V 2.14; I 2.55; M 5.55; Y 0.423; N 0.386; G 0.318; R 2.89; P 0.322
